Results: PMC8440579

Biological target: YukE with nsAA 2 (p-azidophenylalanine) incorporated at position 44, YukE(W44TAG) (B. subtilis) (UniProt C0SP85)
Experiment: cross-linking; in vivo photo-crosslinking through p-azidophenylalanine (nsAA 2) in B. subtilis cells resuspended in 1x PBS, UV 365 nm for 15 min or 60 min on ice; lysates on 17% SDS-PAGE without reductant, anti-YukE immunoblot

YukE with nsAA 2 (p-azidophenylalanine) incorporated at position 44, YukE(W44TAG) (from UniProt C0SP85 1-97) (natural protein)
crosslinking efficiency: 100%
stoichiometry N: 2
